This data set is described as follows: label from the status in PepcDB records.
As to “MSLASLPISNFFTFNHQSTLFTKVKNFMGVKHIGDCMKALINGTIYTSFSPVKKVSGLVISNERVLYAGDSSTALRIAELAGGEIIDLKGKFVMPAFFDSHLHLDELGMSLEMVDLRGVKSMEELVERVKKGRGRIIFGFGWDQDELGRWPTREDLDVIDRPVFLYRRCFHVAVMNSKMIDLLNLKPSKDFDESTGIVRERALEESRKIINEKILTVKDYKHYIESAQEHLLSLGVHSVGFMSVGEKALKALFELEREGRLKMNVFAYLSPELLDKLEELNLGKFEGRRLRIWGVKLFVDGSLGARTALLSEPYTDNPTTSGELVMNKDEIVEVIERAKPLGLDVAVHAIGDKAVDVALDAFEEAEFSGRIEHASLVRDDQLERIKELKVRISAQPHFIVSDWWIVNRVGEERAKWAYRLKTLSSITKLGFSTDSPIEPADPWVSIDAAVNRYVVDPGERVSREEALHLYTHGSAQVTLAEDLGKLERGFRAEYIILDRDPLKEMKGIITITTDPNSSSVDKLAAALEHHHHHH”, the protein production entry is on record as “not failed”.
Under “MSAVVAQTLHVFGLRSHVANNIFYFDEQIIIFPSGNHCVKYNVDQKWQKFIPGSEKSQGMLALSISPNRRYLAISETVQEKPAITIYELSSIPCRKRKVLNNFDFQVQKFISMAFSPDSKYLLAQTSPPESNLVYWLWEKQKVMAIVRIDTQNNPVYQVSFSPQDNTQVCVTGNGMFKLLRFAEGTLKQTSFQRGEPQNYLAHTWVADDKIVVGTDTGKLFLFESGDQRWETSIMVKEPTNGSKSLDVIQESESLIEFPPVSSPLPSYEQMVAASSHSQMSMPQVFAIAAYSKGFACSAGPGRVLLFEKMEEKDFYRESREIRIPVDPQSNDPSQSDKQDVLCLCFSPSEETLVASTSKNQLYSITMSLTEISKGEPAHFEYLMYPLHSAPITGLATCIRKPLIATCSLDRSIRLWNYETNTLELFKEYQEEAYSISLHPSGHFIVVGFADKLRLMNLLIDDIRSFKEYSVRGCGECSFSNGGHLFAAVNGNVIHVYTTTSLENISSLKGHTGKIRSIVWNADDSKLISGGTDGAVYEWNLSTGKRETECVLKSCSYNCVTVSPDAKIIFAVGSDHTLKEIADSLILREISAFDVTYTAIVISHSGRMMFVGTSVGTIRAMKYPLPLQKEFNEYQAHAGPITKVSRTLSPGTQSHTCLLRALFIPSTSQCLFSLLLLSYLFIHHSLNHHLLTMNILFV” stands “failed”; under “MALARWGAALQRRWQAIDPAERAGFVAGARFYVGSLPPVFAWGLVTGVAMSKSVLTIPQAIGMTLLVYAGSSQLAVLPLMAAGLPVWTVLLTAFIVNVRFIIFSAGLMQHFSHLPFGRRVLIGFFNGDLPFVLFSQRYPGPGPERGKEGYLWGMALANWTIWQVSSLLGIVGASLFPDAWGLALAGTLALIPVMVSTIRSRATLMAVAVAAVLALVAFKLPYRLSLVIAVVGAMAAGLAGDEATARLQWQRRGAQPAPSEPKEGP”, “failed”.
Next, “MVGAIARWASLKIVMNPRQLTKTMNIQFLGNITTAILLAVVLQITLWPSAAQACTRILWNNNKLAVVVGRTMDWPESTEPELMVFPQGIKRNGGMLGDMLVVKDNPAQWTSKYGSVVTTVYGMGTVDGLNEKGLGMHMLYLTATDFGPRNPKKAGVQAGLWGQYLLDNAATVKEALALMNEIQPVMVALDDMKATVHLAIEDASGDSAILEYVEGKLVVHHGPEYRVMTNDPTYDQQLKFLETWDFTNATRQTPLPGNVDPKDRFVRASYYQMMLPEPKTEQEAIAGILAIARNTSVPFGAPNNIPGSLYNTEYRTAIDLTNRRYFFELTTSPNVIWVNLDQLNLAPGAPVLSLDPDNLDLSGNVTDKFTKVLKSPF”: “failed”.
On to “MSSRMARLGLSTYRLAGTVASPVVGLYLTYRTAKGKEDRARRLERFGYPSANRPQGPLVWFHAASVGETNAVIPLIREIRRRDIHVILTTGTITSARLAAERLGQEAIHQYVPLDLKPSVSRFLDYWQPDCAIIAESEIWPATVLELGRRRIPQILVNARMSDRSFARWRRRQSIAEALFENLALVIAQSDVDAERFRDLGAVPVITSGNLKVDTDAPPYDSAVFARYKKQIGDRKTWAAISTFDGEENAAGIVHRVLKERDRQLTIIVPRHPERSDEIEAALVKQGLKVARRTRDDVLSADVDIFLGDTIGEMGLYLRLTEIAFVGRSLFAEGGQNPLEPAMLGCAILSGGNVQNFREAYQKLARSGSARMVRDTEMLAKGVHYLLTNDEARRNMIEAGVATVHEMRGALSATVKGLEPYINPLTVKARLLPKAAAQV”, for which the protein production result was “failed”.
Next, “MAGLAARLVLLAGAAALASGSQGDREPVYRDCVLQCEEQNCSGGALNHFRSRQPIYMSLAGWTCRDDCKYECMWVTVGLYLQEGHKVPQFHGKWPFSRFLFFQEPASAVASFLNGLASLVMLCRYRTFVPASSPMYHTCVAFAWVSLNAWFWSTVFHTRDTDLTEKMDYFCASTVILHSIYLCCVRTVGLQHPAVVSAFRALLLLMLTVHVSYLSLIRFDYGYNLVANVAIGLVNVVWWLAWCLWNQRRLPHVRKCVVVVLLLQGLSLLELLDFPPLFWVLDAHAIWHISTIPVHVLFFSFLEDDSLYLLKESEDKFKLD”: “failed”; “DLQAYLQAHYDVLEGKIQLDINGTEIQKGVWVGSGAIIEPGAILNPPCVIGDNCRIESGAVIDSLSVIGNNNVIERDSSVKRSVIWDGNYIEYGSK”: “failed”.
Next, “MGNLTTILYFAYAPALALLWYFYHQDRLEPEPKRVVIGTFILGGTLSVSVALIVESLLVPRWFPRIPALLPATFLYISLIAGIVEEPAKALAIKYAYNSGHLYGIMDGVVYGVAAGLGFAATENLLYGLGYGVHVTIQRALLTPIGHATWSAIVGVGYGLKAEGKVYTLAPYFTLAVLLHFLWDYYAFMSSISPVYYGIVLLIFTINVLIIRWLIILGRKEDMERFWWYRILGGRRW”: “failed”; “MTHVQTMLETYPKDLGDIDRAKLIECIKACFECAQTCTACADACLSEDMVAELTKCIRTNLDCADICVATGNMLSRHTGYDANVTRAVLEACRTVCKACADECEQHASMHEHCRACAEACRRCEKACADLLGSLG”: “failed”; “AFAVLTTAGSRPVLSFLWVEPAARRQGLARELLMALAQQFPGIGTSVTVPETFTPLFAAAGYTPLSLQQYEMTMDLADAKSA”: “failed”.
Next, “WRGIRQRKLHAEELLRLAMAHLRNQGKPVRIVDIAAGHGRYILESLRGVEPLPESILLRDYSDINVRDGSLLIEQKDLEDIARFVKGDAFDRNDLATLDPKPTLAVVSGLYELFSSNQMVGDSLAGLAAAVEPGGYLVYTGQPWHPQLELIARALTSHREGQAWVMRRRSQSEMDQLVEAAGFRKITQRVDEW”: “failed”.
For the sequence “MQQVGFGTWNWVAVIVYLVLMLLVGAYFTKRASQNTDSFFTASGRLPSWAVGFSIYATTLSAITFMSTPEKAFLTDWSYIAGNIAIVAIIPLLIYFYVPFFKKLKVTSAYEYLEARFRPSVRVIGSLLFVLFHLGRVAIVIYLPTLAITAVSDLNPYVVASLVGILCILYTFLGGFEGVVWSDFIQGIILLGGAAAIIILGIIHIKGGMGTVVTDALDHKKLISADNWKFNTAAAAIPIIFLGNIFNNLHQYTASQDVVQRYQASESMSETKKSLWMNGVLALISAPLFYGMGTMLYSFYTHESALPEGFNTSSIVPYLILTEMPPFIAGLLIATIFAAAQSTISSSLNSISACLSVDIKHRIFGKGKEKDEVTFARWMIILSGLFGFGMSIYLIASDSNDLWDLFLLITGLVGVPLAGVFAVGIFTKRTNTLGVICGLALGIIFAYIFNGIGGGNSPFFVSIISFLVAFIFSYLIRIVIPDKKKDIVGLTIFDIKEKSNYVSKIHVKK”, the protein production entry is on record as “failed”.
Next, “KTNFKIVLKEDSELLQEVVVTGYGGKVSRSKLTNSISTVNPQMLDKGIYTNPSQALSGSVPGLKVSLTSGNPTSSPKIILRGGTNFDGSGGPLVVVDGQLRDNFDDINPQDIASMDVLKDAGATAIYGARASNGVILITTKSGKAGH”: “failed”; “MTATAQQLEYLKNSIKSIQDYPKPGILFRDVTSLLEDPKAYALSIDLLVERYKNAGITKVVGTEARGFLFGAPVALGLGVGFVPVRKPGKLPRETISETYDLEYGTDQLEIHVDAIKPGDKVLVVDDLLATGGTIEATVKLIRRLGGEVADAAFIINLFDLGGEQRLEKQGITSYSLVPFPGH”: “not failed”; “VVQRAAETYDLLKQRTEELRRANAQMSLLTVLVQVTQASNSLEAILTPIATAFAESFAVNACILQMLEGQTLSTIQGFYSQQGTVNNWLNQDPLTNEAIATGQIQVAANIAKDPKLASISQYQDNGIQSHVVIPITYRNEMLGVLSLQWQQPISLREDELTLIHLSAQLVAIALTSSRCSL”: “not failed”.
Next, “MSNVVVIAVVLIVASLTGHVSAQMDMSPSSGPSGAPDCMANLMNMTGCLSYVTVGEGGGAAKPDKTCCPALAGLVESSPQCLCYLLSGDMAAQLGIKIDKAKALKLPGVCGVITPDPSLCSLFGIPVGAPVAMGDEGASPAYAPGSMSGAESPGGFGSGPSASRGSDAPSSAPYSLFLNLIIFPLAFAFYIFC”: “failed”; “MAFELSPSDLEPLLQGACFFGSGGGGTMISARHLAANFRKGDYYPTDKVRVVDVDEATDGDCVMVAYMGAPDAINQVQWPNGPVEAALAARQRLESQGRKLAYVVAPESGALGFVVASLVAAKLGLAVVDADGAGRAVPSLPMLTYAAAGVPPTPAFLAGESGLCVELGVRMPPPDGQRREDISTVVEQMLRPILTNPQFGQFGGLAMWMMSPAQLGGALPVRGTLSRALKLGRALQDGKVKTAEAMLDFLRRELDIKGKLLFGPATLASSEVSTAGGFDLGKVVLEDGERRCTVLYQNESLLAWDSALSHPLATAPDAISYFVEGEGQHVFSNGDLSGNDHGLDPSVRGRKAAVIALPAAAPLSEGLILQSFADELAQLGYLGPYAPVDAGREGARLEHHHHHH”: “not failed”.
Next, “PVPATPILQLEECCTHNNSATLSWKQPPLSTVPADGYILELDDGNGGQFREVYVGKETMCTVDGLHFNSTYNARVKAFNKTGVSPYSKTLVLQTSEG”: “not failed”; “KASTKLHVGNISPTCTNQELRAKFEEYGPVIECDIVKDYAFVHMERAEDAVEAIRGLDNTEFQGKRMHVQLSTSRLRTA”: “not failed”.
As for “MGNSITVKRKRAKVMKIDGETFRIKTPVTAREVTADYPGYVLLDSQAVKHFGVRSKPLEPNQTLKPKKTYFLVELPKLPPETTAVDTENKLPYRRVMSGIHVGAKERLDMLMLSRRTVSDVTIGRSDGGDGFGPELGPGHTSVRLRLPRSQITKLMEENNNDASAIAEKILGIYMERSGELGGGRGGVDGRRELGSGEIKAREVSFAGEGGRELPVLWSRSGK”, the protein production entry is listed as “failed”.
Under “MIRQLSLKDYEGVAGSALIDEIRSLGESLQGYNVRHINSTIIGGGVAEILSSLVPLMEDVGLTVNWEVLAGTTEFFHTTKLFHNGMHGQPVNITGEMLENYLAIAQKNQNLLDGDADLVVIHDQQPLGLTAFRGRTRGRWLWYCHVDPRYAVPEVWYFLAPMVATCDAAVFHLPEYARDLEHHHHHH” stands “failed”; under “MISRRTFALAAVASVLLGGTFVGAKAGLSYLPPLLFVALRFDIAAVVLLGYVVVTRSRDELLPRTRGDVLGILSTGLFALGLANALIFVGQQSATSAVAAIIFSLNPILTPVFAAILLSDERLSARGGLGMVIGLLGVGLVVSPDPAMLLSGGIGKLILFAGAASAALGSVLIRWSGGGLSSTVRTAWALPVAAALCHALSIGMGESAATAVWSPTAIAALLYVGIFAGAIAYIAYFGLLDVTGAIQANLIFYVVPVVSTLGGWALLGEAITPTAVAGFLTIFTGFVVLGSESVDIRALLPATTDEGDTVSESLGIADEQRGFESD”, “failed”.

(Values after a protein production outcome set (Wang et al. 2014).)
